Test results: the nanobody polyreactivity screen of Harvey et al. (2022)

assay: yeast display, Sf9 membrane polyspecificity reagent, FACS + sequencing; frameworks hold sequencing errors
Summary of the method: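 Nanobodies from a synthetic yeast display library (Saccharomyces cerevisiae BJ5465), induced 36–48 hours with galactose, were stained 1 hour at 4 °C with 10% biotinylated, detergent-solubilized Sf9 membrane reagent, enriched on streptavidin microbeads, then FACS-sorted. Anti-HA (expression) and streptavidin (reagent binding) fluorescence set low and high (top ~1%) gates. Polyreactivity labels come from the gate of origin. Genes were colony-PCR amplified, MiSeq 2 × 250 sequenced and filtered by CDR length.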

Sequence	polyreactivity (PSR sort gate)
QVQLVESGGGLVQAGGSLRLSCAASGRTFRANAMGWYRQAPGKERELVAAIRTGTRTYYADSVKGRFTISRDNAKNTVYLQMNSLKPEDTAVYYCNRRHYYPYDNYDAMYYWGQGTQVTVSS	high polyreactivity
QVQLVESGGGLVQAGGSLRLSCAASGRTFRANTMGWYRLAPGKERELVAAISHSGGSTYYADSVKGRFTISRDNAKNTVYLQMNSLKPEDTAVYYCATDGGSYSWASPRVDYWGQGTQVTVSS	low polyreactivity
QVQLVESGGGLVQAGGSLRLSCAASGRTFRANTMGWYRQAPGKERELVAAITWSGASTYYADSVKGRFTISRDNAKNTVYLQMNSLKPEDTAVYYCNAGWDSGIVQSDETVYKYDYWGQGTQVTVSS	low polyreactivity
QVQLVESGGGLVQAGGSLRLSCAASGRTFRAYAMGWYRQAPGKERELVAAISSRGGSTYYADSVKGRFTISRDNAKNTVYLQMNSLKPEDTAVYYCNVDRYVRGLITFDYWGQGTQVTVSS	high polyreactivity
QVQLVESGGGLVQAGGSLRLSCAASGRTFRAYAMGWYRQAPGKERELVAGITSGGSTNYADSVKGRFTISRDNAKNTVYLQMNSLKPEDTAVYYCAARRGTYRYRYDYWGQGTQVTVSS	high polyreactivity
QVQLVESGGGLVQAGGSLRLSCAASGRTFRAYAMGWYRQAPGKERELVASISRGGSTKYADSVKGRFTISRDNAKNTVYLQMNSVKPEDTAVYYCAADRLRDGVDYWGQGTQVTVSS	low polyreactivity
QVQLVESGGGLVQAGGSLRLSCAASGRTFRAYTMGWYRQAPGKERELVAAISTPGGSTYYADSVKGRFTISRDNAKNTVYLQMNSLKPEDTAVYYCAADRYYWGQGTQVTVSS	low polyreactivity
QVQLVESGGGLVQAGGSLRLSCAASGRTFREYAMGWYRHAPGKEREFVAAISESVGSTYYADSVKGRFTISRDNAKNTVYLQMNSLKPEDTAVYYCAKQSRYPSLDADYDYWGQGTQVTVSS	low polyreactivity
QVQLVESGGGLVQAGGSLRLSCAASGRTFRFYAMGWYRPAPGKERELVAGITRSGGGTYYADSVKGRFTISRDNAKNTVYLQMNSLKPEDTAVYYCAATHAYLGYGYWGQGTQVTVSS	high polyreactivity
QVQLVESGGGLVQAGGSLRLSCAASGRTFRFYDMGWYRQAPGKERELVAAISRGGGSTYYADSVKGRFTISRDNAKNTVYLQMNSLKPEDTAVYYCAAKPYKTRSSYWGDYYWGQGTQVTVSS	high polyreactivity
QVQLVESGGGLVQAGGSLRLSCAASGRTFRGNALGWYRQAHGKERELVAAITGTGGSTYYADSVKGRFTISRDNAKNTVYLQRNRLKPEDTAVYYCAAVLRGHNGLKFEYWGQGTQVTVSS	high polyreactivity
QVQLVESGGGLVQAGGSLRLSCAASGRTFRGNAMGWYRQAPGKERELVAAIRWNGGSTYYADSVKGRFTISRDNAKNTVYLQMNSLKPEDTAVYYCAVLRLDYWGQGTQVTVSS	high polyreactivity
QVQLVESGGGLVQAGGSLRLSCAASGRTFRGYAMGWYRQAPGKERELVAAISVTGSSTNYADSVKGRFTISRDNAKNTVYLQMNSLKPEDTAVYYCAASYRLYKYDYWGQGTQVTVSS	high polyreactivity
QVQLVESGGGLVQAGGSLRLSCAASGRTFRGYAMGWYRQAPGKERELVAAISVTGSSTNYADSVKGRFTISRDNAKNTVYLQMNSLKPEDTAVYYCNAKRVRYSLSYDYWGQGTQVTVSS	high polyreactivity
QVQLVESGGGLVQAGGSLRLSCAASGRTFRGYAMGWYRQAPGKERELVAAITRSGGSTYADSVKGRFTISRDNAKNTFYLQMNSLKPEDTAVYYCAADRGYKYYYWGQGTQVTVSS	high polyreactivity
QVQLVESGGGLVQAGGSLRLSCAASGRTFRGYVMGWYRQAPGKEREFVAAITRSDGSTYYADSVKGRFTISRDNAKNTVYLQMNSLKPEDTAVYYCAADLRRFQSYYYWGQGTQVTVSS	high polyreactivity
QVQLVESGGGLVQAGGSLRLSCAASGRTFRGYVMGWYRQAPGKERELVAAISKSGGSTYYADSVKGRFTISRDNAKNTVYLQMNSLKPEDTAVYYCAKNYRYYVFYDGFDYWGQGTQVTVSS	low polyreactivity
QVQLVESGGGLVQAGGSLRLSCAASGRTFRHNAMGWYRQAPGKERELVAAISKSGGRTYYADSVKGRFTISRDNAKNTVYLQMNSLKPEDTAVYYCAAPLYVSTSGEVGYWGQGTQVTVSS	high polyreactivity
QVQLVESGGGLVQAGGSLRLSCAASGRTFRHNAMGWYRQAPGKERELVAAISSSGTNTHYADSVKGRFTISRDNAKNTVYLQMNSLKPEDTAVYYCATVVRSAAYAFDYWGQGTQVTVSS	high polyreactivity
QVQLVESGGGLVQAGGSLRLSCAASGRTFRINAMGWYRQAPGKERELVAAITSIAGNTYYADSVKGRFTISRDNAKNTVYLQMNSLKPEDTAVYYCAVDSVPWGFRGAYGLTRYYYWGQGTQVTVSS	low polyreactivity
QVQLVESGGGLVQAGGSLRLSCAASGRTFRINAMGWYRQAPGKERELVAAITYRGANTYYADSVKGRFTISRDNAKNTVYLQMNSLKPEDTAVYYCAAEYAYHHVGFGYWGQGTQVTVSS	low polyreactivity

Sequence	polyreactivity (PSR sort gate)
QVQLVESGGGLVQAGGSLRLSCAASGRTFRIYAMGWYRPATGKEREMVATISGRGGNTYYADSVKGRFTISRDNAKNTVYLQMNSLKPDDTAVYYCNTVYLPNFQWFDYWGQGTQVTVSS	high polyreactivity
QVQLVESGGGLVQAGGSLRLSCAASGRTFRIYAMGWYRQAPGKEREFVAAITWSGGRTYYADSVKGRFTISRDNAKNTVYLQMNSLKPEDTAVYYCAADPTYLRTLRFGSYDYWGQGTQVTVSS	high polyreactivity
QVQLVESGGGLVQAGGSLRLSCAASGRTFRKYAMGWYRQAPGKERELVAALSWYGGSTYYANSVKGRFTISRDNAKNTVYLQMNSLKPEDTAVYYCAAVPVHTGSLYWGFTTCYDYWGQGTQVTVSS	low polyreactivity
QVQLVESGGGLVQAGGSLRLSCAASGRTFRKYAMGWYRQATGKERELVAAISWSGGSTYYANSVKGRFTISGDNAKNTVYLQINSLNPEDTAVYFCAVDCHPEEYDYWGQGTQVTVSS	low polyreactivity
QVQLVESGGGLVQAGGSLRLSCAASGRTFRLNAMGWYRQAPGKERELVAAINTGGGTYYADSVKGRFTISRDNAKNSVYLQMNSLKPEDTAVYYCNACTRYGSFSYVKYDWGQGTQVTVSS	high polyreactivity
QVQLVESGGGLVQAGGSLRLSCAASGRTFRLNAMGWYRQAPGKERELVAAITASGGRTYYADSVKGRFTISRDNAKNTVYLQMNSLKPEDTAVYYCNTLSRTDASRFDYWGQGTQVTVSS	high polyreactivity
QVQLVESGGGLVQAGGSLRLSCAASGRTFRLNAMGWYRQAPGKERELVAAITLGGGRTYYADSVKGRFTISRDNAKNTVYLQMNSLKPEDTAVYYCNKVKRSYYYVDTDYWGQGTQVTVSS	high polyreactivity
QVQLVESGGGLVQAGGSLRLSCAASGRTFRLNGMGWYRQAPGKDRELVAAITWSGGRTYYADSVKGRFTISRDNAKNTVYLQKNSLKPEDTAVYYCAAGKSSYGIPKYYYWGQGTQVTVSS	high polyreactivity
QVQLVESGGGLVQAGGSLRLSCAASGRTFRLYAMGWYRQAPGKERELVAAISRRGGSTYYADSVKGRFTISRDNAKNTVYLQMNSLKPEDTAVYYCAKGLGSGQEIYGYDYWGQGTQVTVSS	high polyreactivity
QVQLVESGGGLVQAGGSLRLSCAASGRTFRPNVMGWYRQAPGKERELVAAISNGGRTYYADSVKGRFTISRDNAKNTVYLQMNSLKPEDTAVYYCNKVRSPWYDSWGQGTQVTVSS	high polyreactivity
QVQLVESGGGLVQAGGSLRLSCAASGRTFRPYAMGLYRQEPGKERELVAAITSGGSTYYADSVKGRLTFSRDNAKYTVYLQMNSLKTEDTAVYYCNAKYYYQPPYDYWVQGTQVTVSS	low polyreactivity
QVQLVESGGGLVQAGGSLRLSCAASGRTFRPYAMGWYRQAPGKERELVAAITTTGRTYYADSVKGRFTISRDNAKNTVYLQMNSLKPEDTAVYDCNAVAYPSPHYWRYYYWGQGTQVTVSS	high polyreactivity
QVQLVESGGGLVQAGGSLRLSCAASGRTFRQYALGWYRQAPGKEWELVATISGGGGNTYYADSVKGRFTISRDNAKKTVYLQMNSLKPEDTAFYYCAARRRDRPVRGYDYWGQGTQVTVSS	high polyreactivity
QVQLVESGGGLVQAGGSLRLSCAASGRTFRQYAMGWSRQAPGKERELVAGITASGGSTSYADSVKGRFTISRDNAKNTVYLQMNSLKPEDTAVYYCAKLSYLYRYDYWGQGTQVTVSS	high polyreactivity
QVQLVESGGGLVQAGGSLRLSCAASGRTFRQYAMGWYRQAPGQETELVAAITWDGGSTYYADSVKGRFTISRDNAKNPVYLQMNSLKPEDTAVYYCAKLLGGTYYEYDYWGQGTQVTVSS	low polyreactivity
QVQLVESGGGLVQAGGSLRLSCAASGRTFRRNAMGWYRQAPGKERELVAAINSGGSTYYADSVKGRFTISRDNAKNTDYLQMNSLKPEDTAVYYCAASGSKYVQSYSRYDYWGQGTQVTVSS	high polyreactivity
QVQLVESGGGLVQAGGSLRLSCAASGRTFRRNAMGWYRQAPGKERELVAAISWRGVSTYYADSVKGRFTISRDNAKNTVYLQMNSLKPEDNALYYCAVDFPYTRRDYWGQGPQVTVSS	high polyreactivity
QVQLVESGGGLVQAGGSLRLSCAASGRTFRRNAMGWYRQAPGKEWELVAAISKSGGRTYYADSVKGRFTISRDNAKNTVYLQMNSLKPEDTAVYYCAARGYGYIPDNGDYDYWGQGTQVTVSS	high polyreactivity
QVQLVESGGGLVQAGGSLRLSCAASGRTFRRNTMGWYRQAPGKERELVAAISNRGTSTYYADSVKGRFTFSRDNAKNTVYLQMNSLKPEDTAVYYCAAREKYISYSYYYWGQGTQVTVSS	high polyreactivity
QVQLVESGGGLVQAGGSLRLSCAASGRTFRRNTMGWYRQATGKERAFVAAITFSGVRTYYADSVKGRFTISRDNAKNTVYLQMNSLKPEDTAVYYCANSRQYIGGFDYWGQGTQVTVSS	high polyreactivity
